Data published in patent US20150376237A1, “POLYPEPTIDES FOR BLOOD BRAIN BARRIER TRANSPORT” (SAGETIS BIOTECH, SL, priority 2012, published 2015).

Test system: in vitro BBB model (bovine brain endothelial cells co-cultured with mouse mixed glial cells)
Assay: Fluorescently-labelled peptide in vitro BBB model crossing test
Conditions: fluorescent peptide, 20 μg/ml fluorophore in DMEM/F12, 60 min at 37° C.
Protocol: Mouse primary cultures of mixed glial cells are seeded on a 24-well plate and bovine brain endothelial cells are cultured on collagen-coated inserts in another plate. After three days, the inserts are moved into astrocyte-containing plates and cultured for a further three days. To assess the integrity of the in vitro BBB, trans-endothelial electrical resistance (TEER) is measured on the day of the experiment. TEER values higher than 200Ω/cm^2 are considered acceptable.
Peptides are applied at 20 μg/ml of fluorophore in the luminal side of the inserts and placed in wells filled with Ringer-Hepes buffer (the composition of Ringer-Hepes buffer is described above). After 1 h incubation, samples from the upper and lower compartments are collected and measured using a fluorimeter. […]
All samples (t=0 up, t=0 down, t=60 up and t=60 down) from each condition (testing peptides and negative control) are plated in black 96-well microplates as well as the corresponding standard curves. Fluorescence is measured using a multi-well plate reader. […]
The endothelial permeability coefficient values for LY and the tested peptide are also determined. […] The increment in cleared volume between the incubation times is calculated by dividing the amount of transported compound by the donor chamber concentration and calculating the total volume cleared, as shown below: […]

SEQ ID NO: 12: GDAAAAKAAKAAAKAAADGY, rigid polypeptide, single domain binder (Rigid_1)
Percentage BBB crossing: Percentage BBB crossing: 7.51%
